Reference: PMC4357710, “TEFM is a potent stimulator of mitochondrial transcription elongation in vitro” (Nucleic Acids Research, 2015)

B1: human TEFM (mitochondrial transcription elongation factor), residues 36-360 (natural protein, UniProt Q96QE5 36-360, looked up)
chain: KSTTPKKITPNVTFCDENAKEPENALDKLFSSEQQASILHVLNTASTKELEAFRLLRGRRSINIVEHRENFGPFQNLESLMNVPLFKYKSTVQVCNSILCPKTGREKRKSPENRFLRKLLKPDIERERLKAVNSIISIVFGTRRIAWAHLDRKLTVLDWQQSDRWSLMRGIYSSSVYLEEISSIISKMPKADFYVLEKTGLSIQNSSLFPILLHFHIMEAMLYALLNKTFAQDGQHQVLSMNRNAVGKHFELMIGDSRTSGKELVKQFLFDSILKADPRVFFPSDKIVHYRQMFLSTELQRVEELYDSLLQAIAFYELAVFDSQP
modifications: amine-labeled with NT-547 dye (only in the MST with POLRMT)
notes: human TEFM, UniProt Q96QE5, residues 36-360; lacks the predicted mitochondrial targeting signal; The gel filtration used unlabelled protein; the MST used NT-547-labelled protein; also called recombinant TEFM; recombinant human TEFM; source: KRX cells (Promega), purified (Ni-IMAC, TEV cleavage, HiTrap Heparin, Sephacryl S-200 gel filtration); not shown: His6, N-terminal, cleaved
B2: elongation-like DNA:RNA template (18-mer DNA / 12-mer RNA) (DNA:RNA)
DNA: GGGAATGCATGGCGCGGC
RNA: UUUUGCCGCGCC

What was measured:
[1] = target: the molecule itself; test: SEC; analytic gel filtration of recombinant TEFM; apparent molecular weight 82 kDa against 37.6 kDa for the chain
[2] = target: POLRMT (Homo sapiens, UniProt O00411 42-1230); test: MST; 500 uM ATP (one nt incorporation, paused), 10 mM Mg2+, no TEFM; MST: 25 mM Tris-HCl pH 8.0, 100 mM NaCl, 10 mM MgCl2, 10% glycerol, 1 mM DTT, 500 uM ATP, 0.05% Tween-20, 15 nM template, 22 C; footprinting: 25 mM Tris-HCl pH; settings: protein: recombinant; label: 5' Alexa488 on DNA; 8 bp DNA:RNA hybrid; DNA 5' overhang 10 nt; RNA 5' overhang 4 nt (UUUU)
POLRMT, sequence (O00411 42-1230): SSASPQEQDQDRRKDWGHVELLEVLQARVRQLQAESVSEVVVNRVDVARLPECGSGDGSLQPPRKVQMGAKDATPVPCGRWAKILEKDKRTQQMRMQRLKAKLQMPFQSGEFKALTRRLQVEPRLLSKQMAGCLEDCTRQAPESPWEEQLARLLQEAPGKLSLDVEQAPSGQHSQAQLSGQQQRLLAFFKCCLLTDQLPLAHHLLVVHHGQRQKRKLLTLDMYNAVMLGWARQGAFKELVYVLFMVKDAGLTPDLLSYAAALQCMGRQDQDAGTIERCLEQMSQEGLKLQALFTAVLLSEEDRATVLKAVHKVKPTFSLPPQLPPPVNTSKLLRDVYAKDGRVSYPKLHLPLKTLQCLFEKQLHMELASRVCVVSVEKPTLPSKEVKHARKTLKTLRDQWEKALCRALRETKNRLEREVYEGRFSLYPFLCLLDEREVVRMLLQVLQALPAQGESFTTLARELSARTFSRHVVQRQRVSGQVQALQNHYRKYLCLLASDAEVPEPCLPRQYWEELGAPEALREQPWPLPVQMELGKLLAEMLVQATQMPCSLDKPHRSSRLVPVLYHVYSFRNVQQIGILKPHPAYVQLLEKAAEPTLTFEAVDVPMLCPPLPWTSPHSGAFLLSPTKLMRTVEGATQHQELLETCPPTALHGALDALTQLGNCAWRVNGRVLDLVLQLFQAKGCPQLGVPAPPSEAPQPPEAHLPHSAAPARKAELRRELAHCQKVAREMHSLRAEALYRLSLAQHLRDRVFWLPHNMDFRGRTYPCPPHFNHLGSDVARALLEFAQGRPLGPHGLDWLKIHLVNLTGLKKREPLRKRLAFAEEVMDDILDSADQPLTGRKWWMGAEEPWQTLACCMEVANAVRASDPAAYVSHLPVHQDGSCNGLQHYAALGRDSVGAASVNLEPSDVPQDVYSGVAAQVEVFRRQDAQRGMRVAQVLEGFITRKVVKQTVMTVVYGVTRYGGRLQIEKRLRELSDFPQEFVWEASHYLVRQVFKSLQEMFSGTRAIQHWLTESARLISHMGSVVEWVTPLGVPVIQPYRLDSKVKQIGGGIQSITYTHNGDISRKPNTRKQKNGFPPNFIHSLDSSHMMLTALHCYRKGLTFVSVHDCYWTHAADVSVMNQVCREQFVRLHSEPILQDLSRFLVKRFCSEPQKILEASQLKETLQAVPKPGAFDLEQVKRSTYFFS

[3] = target: POLRMT;TEFM (Homo sapiens;Homo sapiens, UniProt O00411;Q96QE5 42-1230;36-360, |); test: MST; POLRMT titrated with 2000 nM TEFM; 500 uM ATP (one nt incorporation, paused), 10 mM Mg2+; MST: 25 mM Tris-HCl pH 8.0, 100 mM NaCl, 10 mM MgCl2, 10% glycerol, 1 mM DTT, 500 uM ATP, 0.05% Tween-20, 15 nM template, 22 C; footprinting: 25 mM Tris-HCl pH; settings: protein: recombinant;recombinant; copies: 1;2; label: 5' Alexa488 on DNA; 8 bp DNA:RNA hybrid; DNA 5' overhang 10 nt; RNA 5' overhang 4 nt (UUUU)
POLRMT;TEFM, sequence (O00411 42-1230, chain 1 of 2, one chain of several): as the sequence (O00411 42-1230) above

Row | Binder | stoichiometry N [1] | Kd [2] [nM] | Kd [3] [nM]
1 | B1 | 2 |  | 
2 | B2 |  | 47.8 ± 2.88 | 11.2 ± 1
